Source: patent publication US20220396635A1 (UNIVERSIT T STUTTGART, published 2022)

B1: scDb/scFv-Fc (1-1)+2, trivalent bispecific anti-HER3×anti-CD3 (bispecific antibody)
chain 1: QVQLQQSGPGLVKPSQTLSLTCAISGDSVSSNRAAWNWIRQSPSRGLEWLGRTYYRSKWYNDYAQSLKSRITINPDTPKNQFSLQLNSVTPEDTAVYYCARDGQLGLDALDIWGQGTMVTVSSGGGGSQAGLTQPPAVSVAPGQTASITCGRDNIGSRSVHWYQQKPGQAPVLVVYDDSDRPAGIPERFSGSNYENTATLTISRVEAGDEADYYCQVWGITSDHVVFGGGTKLTVLGGGGSGGGGSGGGGSQVQLQQSGPGLVKPSQTLSLTCAISGDSVSSNRAAWNWIRQSPSRGLEWLGRTYYRSKWYNDYAQSLKSRITINPDTPKNQFSLQLNSVTPEDTAVYYCARDGQLGLDALDIWGQGTMVTVSSGGGGSQAGLTQPPAVSVAPGQTASITCGRDNIGSRSVHWYQQKPGQAPVLVVYDDSDRPAGIPERFSGSNYENTATLTISRVEAGDEADYYCQVWGITSDHVVFGGGTKLTVLAAADKTHTCPPCPAPPVAGPSVFLFPPKPKDTLMISRTPEVTCVVVDVSHEDPEVKFNWYVDGVEVHNAKTKPREEQYNSTYRVVSVLTVLHQDWLNGKEYKCKVSNKGLPSSIEKTISKAKGQPREPQVCTLPPSRDELTKNQVSLSCAVKGFYPSDIAVEWESNGQPENNYKTTPPVLDSDGSFFLVSKLTVDKSRWQQGNVFSCSVMHEALHNHYTQKSLSLSPGK
chain 2: DIQMTQSPSSLSASVGDRVTITCRASQDIRNYLNWYQQKPGKAPKLLIYYTSRLHSGVPSRFSGSGSGTDFTFTISSLQPEDIATYYCQQGNTLPWTFGQGTKLEIKRGGGGSGGGGSGGGGSQVQLVQSGAEVKKPGSSVKVSCKASGGTFSGYTMNWVRQAPGQGLEWMGLINPYKGVSTYNGKFKDRVTITADKSTSTAYMELSSLRSEDTAVYYCARSGYYGDSDWYFDVWGQGTLVTVSSAAADKTHTCPPCPAPPVAGPSVFLFPPKPKDTLMISRTPEVTCVVVDVSHEDPEVKFNWYVDGVEVHNAKTKPREEQYNSTYRVVSVLTVLHQDWLNGKEYKCKVSNKGLPSSIEKTISKAKGQPREPQVYTLPPCRDELTKNQVSLWCLVKGFYPSDIAVEWESNGQPENNYKTTPPVLDSDGSFFLYSKLTVDKSRWQQGNVFSCSVMHEALHNHYTQKSLSLSPGK
notes: The scDb is monospecific for HER3; the CD3 site sits in the scFv arm; also called scDb3-43x3-43-Fc(hole)Δab + scFvhuU3-Fc(knob)Δab
B2: scDb/Fab-Fc (1-1)+2, trivalent bispecific anti-HER3×anti-CD3 (bispecific antibody)
chain: B1 chain 1
heavy: QVQLVQSGAEVKKPGSSVKVSCKASGGTFSGYTMNWVRQAPGQGLEWMGLINPYKGVSTYNGKFKDRVTITADKSTSTAYMELSSLRSEDTAVYYCARSGYYGDSDWYFDVWGQGTLVTVSSASTKGPSVFPLAPSSKSTSGGTAALGCLVKDYFPEPVTVSWNSGALTSGVHTFPAVLQSSGLYSLSSVVTVPSSSLGTQTYICNVNHKPSNTKVDKKVEPKSCDKTHTCPPCPAPPVAGPSVFLFPPKPKDTLMISRTPEVTCVVVDVSHEDPEVKFNWYVDGVEVHNAKTKPREEQYNSTYRVVSVLTVLHQDWLNGKEYKCKVSNKGLPSSIEKTISKAKGQPREPQVYTLPPCRDELTKNQVSLWCLVKGFYPSDIAVEWESNGQPENNYKTTPPVLDSDGSFFLYSKLTVDKSRWQQGNVFSCSVMHEALHNHYTQKSLSLSPGK
light: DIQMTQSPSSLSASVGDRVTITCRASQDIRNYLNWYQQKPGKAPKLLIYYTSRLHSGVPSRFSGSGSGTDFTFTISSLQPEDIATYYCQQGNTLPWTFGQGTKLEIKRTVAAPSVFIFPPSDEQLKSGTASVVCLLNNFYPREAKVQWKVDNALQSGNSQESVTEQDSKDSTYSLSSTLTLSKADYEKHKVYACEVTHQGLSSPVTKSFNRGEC
notes: The scDb is monospecific for HER3; the CD3 site sits in the Fab arm; also called scDb3-43x3-43-Fc(hole)Δab + FdhuU3-Fc(knob)Δab + VLhuU3-CLK
B3: scDbhu225xhuU3 (bispecific antibody)
chain: EVQLVESGGGLVQPGGSLRLSCAASGFSLTNYGVHWVRQAPGKGLEWLGVIWSGGNTDYNTPFTSRFTISRDNSKNTLYLQMNSLRAEDTAVYYCARALTYYDYEFAYWGQGTTVTVSSGGGGSDIQMTQSPSSLSASVGDRVTITCRASQDIRNYLNWYQQKPGKAPKLLIYYTSRLHSGVPSRFSGSGSGTDFTFTISSLQPEDIATYYCQQGNTLPWTFGQGTKLEIKRGGGGSGGGGSGGGGSQVQLVQSGAEVKKPGSSVKVSCKASGGTFSGYTMNWVRQAPGQGLEWMGLINPYKGVSTYNGKFKDRVTITADKSTSTAYMELSSLRSEDTAVYYCARSGYYGDSDWYFDVWGQGTLVTVSSGGGGSDIQLTQSPSFLSASVGDRVTITCRASQSIGTNIHWYQQKPGKAPKLLIKYASESISGVPSRFSGSGSGTEFTLTISSLQPEDFATYYCQQNNNWPTTFGAGTKLEIKRAAAGGSGGGGSGGGTGGGGSLHHHHHH
notes: the end number was counted from the printed lines; The His tag is part of the entry; also called bispecific scDb targeting CD3 and EGFR
B4: scDbhu225xhuU3-scFvhu225 (bispecific antibody)
chain: EVQLVESGGGLVQPGGSLRLSCAASGFSLTNYGVHWVRQAPGKGLEWLGVIWSGGNTDYNTPFTSRFTISRDNSKNTLYLQMNSLRAEDTAVYYCARALTYYDYEFAYWGQGTTVTVSSGGGGSDIQMTQSPSSLSASVGDRVTITCRASQDIRNYLNWYQQKPGKAPKLLIYYTSRLHSGVPSRFSGSGSGTDFTFTISSLQPEDIATYYCQQGNTLPWTFGQGTKLEIKRGGGGSGGGGSGGGGSQVQLVQSGAEVKKPGSSVKVSCKASGGTFSGYTMNWVRQAPGQGLEWMGLINPYKGVSTYNGKFKDRVTITADKSTSTAYMELSSLRSEDTAVYYCARSGYYGDSDWYFDVWGQGTLVTVSSGGGGSDIQLTQSPSFLSASVGDRVTITCRASQSIGTNIHWYQQKPGKAPKLLIKYASESISGVPSRFSGSGSGTEFTLTISSLQPEDFATYYCQQNNNWPTTFGAGTKLEIKRAAAGGSGGGGSGGGTEVQLVESGGGLVQPGGSLRLSCAASGFSLTNYGVHWVRQAPGKGLEWLGVIWSGGNTDYNTPFTSRFTISRDNSKNTLYLQMNSLRAEDTAVYYCARALTYYDYEFAYWGQGTTVTVSSGGGGSGGGGSGGGGSDIQLTQSPSFLSASVGDRVTITCRASQSIGTNIHWYQQKPGKAPKLLIKYASESISGVPSRFSGSGSGTEFTLTISSLQPEDFATYYCQQNNNWPTTFGAGTKLEIKRSLHHHHHH
notes: the end number was counted from the printed lines; The His tag is part of the entry; also called scDb-scFv; trivalent, bispecific bisAb targeting EGFR and CD3

Columns and labels:
[1] = target: T1, HER3 (UniProt P21860 20-1342, limits assumed); test: flow cytometry, serial dilution on LIM1215 cells (HER3-expressing), PE anti-human Fc detection
T1 construct: whole, on cells; the cell lines are human tumor lines
Method: (§1) Binding of trivalent, bispecific fusion proteins to HER3-expressing (LIM1215, MCF-7) and CD3-expressing (Jurkat) cell lines was analyzed by flow cytometry. 2×10⁵ cells/well were incubated with a serial dilution of trivalent, bispecific antibodies for 1 h at 4° C. followed by detection using a PE-conjugated anti-human Fc antibody (Jackson ImmunoResearch Laboratories Inc). […] Concerning binding to the CD3-expressing cell line Jurkat, the trivalent, bispecific antibodies in the (1-2)+1 and in the (2−1)+1 orientation bound with EC₅₀ values in the low nanomolar range.

[2] = target: T2, CD3 (UniProt P07766 23-207); test: flow cytometry, serial dilution on Jurkat cells (CD3-expressing), PE anti-human Fc detection
T2 construct: whole, on cells; on cells it stands in the TCR/CD3 complex; also called CD3 on Jurkat cells
Method: as §1

[3] = target: T1, HER3; test: cell-based or functional assay
[4] = target: T1, HER3; test: flow cytometry, serial dilution on MCF-7 cells (HER3-expressing), PE anti-human Fc detection
Method: as §1

[5] = target: T2, CD3; test: flow cytometry, serial dilution on Jurkat cells (CD3-expressing), PE anti-His detection
[6] = target: T3, EGFR (UniProt P00533 25-1210, limits assumed); test: cell-based or functional assay
[7] = target: T3, EGFR; test: flow cytometry, serial dilution on SKBR-3 cells (EGFR-expressing), PE anti-His detection
Method: (§2) Binding analysis of scDb and scDb-scFv was performed by flow cytometry using tumor cell lines with different EGFR-expression levels (Table 7). Adherent cells were washed with PBS and shortly trypsinized at 37° C. Trypsin was quenched with FCS-containing medium and removed by centrifugation (500×g, 5 min.). 1×10⁵ target cells/well (FaDu, Lim1215, T-47-D and SKBR-3) were incubated with a serial dilution of scDb or scDb-scFv for 1 h at 4° C. After removing excess of recombinant protein by washing with PBA (PBS, 2% FBS, and 0.02% sodium azide), bound protein was detected using PE-conjugated anti-hexahistidyl tag mAb (Miltenyi Biotec). Fluorescence was measured using MACSquant Analyzer 10 (Miltenyi Biotec) and data were analyzed using FlowJo (Tree Star). Relative median fluorescence intensities (MFI) were calculated as followed: relative MFI=((MFIₛₐₘₚₗₑ-(MFIdetection-MFIcells))/MFIcells).

[8] = target: T3, EGFR; test: flow cytometry, serial dilution on T-47-D cells (EGFR-expressing), PE anti-His detection
Method: as §2

[9] = target: T3, EGFR; test: flow cytometry, serial dilution on LIM1215 cells (EGFR-expressing), PE anti-His detection
Method: as §2

[10] = target: T3, EGFR; test: flow cytometry, serial dilution on FaDu cells (EGFR-expressing), PE anti-His detection
Method: as §2

Row | Binder | EC50 [1] | EC50 [2] | EC50 of proliferation of CD4+ T-cells, MCF-7 co-culture [3] | EC50 of proliferation of CD8+ T-cells, MCF-7 co-culture [3] | EC50 [4] | EC50 [5] | EC50 of PBMC cytotoxicity on FaDu cells, E:T 10:1 [6] | EC50 of PBMC cytotoxicity on LIM1215 cells, E:T 10:1 [6] | EC50 of PBMC cytotoxicity on SKBR-3 cells, E:T 10:1 [6] | EC50 of PBMC cytotoxicity on T-47-D cells, E:T 10:1 [6] | EC50 [7] | EC50 [8] | EC50 [9] | EC50 [10]
1 | B1 | 882 pM | 700 pM | 393 pM | 191 pM | 400 pM | – | – | – | – | – | – | – | – | –
2 | B2 | 249 pM | 8700 pM | – | – | 700 pM | – | – | – | – | – | – | – | – | –
3 | B3 | – | – | – | – | – | 5400 pM | > 10000 pM | > 10000 pM | > 10000 pM | > 10000 pM | 2300 pM | 1100 pM | 1600 pM | 1400 pM
4 | B4 | – | – | – | – | – | 6400 pM | 9 pM | 7 pM | 2 pM | 90 pM | 300 pM | 90 pM | 500 pM | 500 pM
